Results from US20090252748A1 (Biogen, published 2009).
Blank lines part the entries; values can stand above or below the binder they belong to.

Tests used:
[1] = target: T1, Sp35 fragment 417-498 human Fc (human, UniProt Q96FE5 423-504); experiment: fragment binding
T1 construct: not shown: Fc, printed 'human Fc'
T1 sequence: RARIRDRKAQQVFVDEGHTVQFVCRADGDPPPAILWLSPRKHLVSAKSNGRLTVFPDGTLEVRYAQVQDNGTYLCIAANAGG

AP-Sp35 (418-498) = target: T2, AP-Sp35 (418-498) (Homo sapiens (Human), UniProt Q96FE5 424-504); experiment: fragment binding
T2 sequence: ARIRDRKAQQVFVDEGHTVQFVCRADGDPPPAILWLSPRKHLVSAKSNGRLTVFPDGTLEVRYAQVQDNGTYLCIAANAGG

Ig region of Sp35 = target: T3, Ig region of Sp35 (Homo sapiens (Human), UniProt Q96FE5 425-499); experiment: ELISA
T3 sequence: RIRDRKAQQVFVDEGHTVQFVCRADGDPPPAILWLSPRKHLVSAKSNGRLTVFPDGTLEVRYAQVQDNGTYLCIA
Experimental: Ovalbumin and BSA were used as controls. […] The affinity of these latter antibodies for mouse and rat Sp35 was restored to the level seen using human Sp35 when amino acid 419 of the mouse or rat Sp35 is changed from histidine (H) to arginine (R). Arginine is the amino acid at position 419 in human Sp35. […] AP substrate was then developed by 10 mg/ml 4 NPP in 0.1 M Glycine, 1 mM MgCl₂, 1 mM ZnCl₂, pH 10.5, and read at O.D. 405.
In similar experiments, monoclonal antibodies 3B5.2 and 7P1D5.1G9, as well as the Fab fragment of the 7P1D5.1G9 antibody were tested in ELISA assays for their ability to bind human Sp35, the entire LRR region of Sp35, the Ig region of Sp35 and murine Sp35. […] The 3B5.2 and 7P1D5. 1G9 monoclonal antibodies also bound the LRR region of Sp35.

[2] = target: T4, human Sp35 protein expressed on transfected cells (human, UniProt Q96FE5 40-620); experiment: FACS direct binding, CHO cells stably transfected with human Sp35 (LINGO-1), mean fluorescence (MCF) against antibody concentration [panel Human]
T4 construct: also called huSp35; hLINGO-1
T4 sequence: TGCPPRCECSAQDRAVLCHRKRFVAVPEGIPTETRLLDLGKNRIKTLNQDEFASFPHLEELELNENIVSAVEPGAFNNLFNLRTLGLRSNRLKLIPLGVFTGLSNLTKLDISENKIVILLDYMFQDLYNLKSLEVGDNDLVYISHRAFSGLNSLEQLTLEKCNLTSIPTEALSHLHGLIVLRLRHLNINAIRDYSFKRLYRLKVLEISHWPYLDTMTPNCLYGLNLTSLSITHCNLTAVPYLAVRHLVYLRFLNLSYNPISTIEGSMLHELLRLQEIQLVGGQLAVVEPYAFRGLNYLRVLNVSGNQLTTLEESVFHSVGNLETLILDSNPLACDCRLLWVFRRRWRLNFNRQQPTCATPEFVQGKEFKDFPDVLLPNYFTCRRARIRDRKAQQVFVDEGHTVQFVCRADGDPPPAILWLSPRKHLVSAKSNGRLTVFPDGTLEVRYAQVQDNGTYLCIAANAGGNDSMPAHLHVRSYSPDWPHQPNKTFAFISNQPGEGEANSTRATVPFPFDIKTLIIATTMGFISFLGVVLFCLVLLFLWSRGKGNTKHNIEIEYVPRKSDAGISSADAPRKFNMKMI
Experimental: (§1) In similar experiments, CHO cells stably transfected with Sp35 were used in FACS analysis to further characterize the binding properties of 3B5.2 and 7P1D5.1G9. […] Specifically, the 3B5.2 and 7P1D5.1G9 antibodies were tested for their ability to bind CHO cells transfected with, and expressing, human or murine Sp35. […] Additionally, the 3B5.2 antibody bound more cells as measured by the mean fluorescence (MCF) than 7P1D5.1G9.

[3] = target: T5, mouse Sp35 protein expressed on transfected cells (mouse, UniProt Q9D1T0 36-614); experiment: FACS direct binding, CHO cells stably transfected with murine Sp35 (LINGO-1), mean fluorescence (MCF) against antibody concentration [panel Murine]
T5 construct: whole, on cells; also called mSp35; mLINGO-1
T5 sequence (looked up): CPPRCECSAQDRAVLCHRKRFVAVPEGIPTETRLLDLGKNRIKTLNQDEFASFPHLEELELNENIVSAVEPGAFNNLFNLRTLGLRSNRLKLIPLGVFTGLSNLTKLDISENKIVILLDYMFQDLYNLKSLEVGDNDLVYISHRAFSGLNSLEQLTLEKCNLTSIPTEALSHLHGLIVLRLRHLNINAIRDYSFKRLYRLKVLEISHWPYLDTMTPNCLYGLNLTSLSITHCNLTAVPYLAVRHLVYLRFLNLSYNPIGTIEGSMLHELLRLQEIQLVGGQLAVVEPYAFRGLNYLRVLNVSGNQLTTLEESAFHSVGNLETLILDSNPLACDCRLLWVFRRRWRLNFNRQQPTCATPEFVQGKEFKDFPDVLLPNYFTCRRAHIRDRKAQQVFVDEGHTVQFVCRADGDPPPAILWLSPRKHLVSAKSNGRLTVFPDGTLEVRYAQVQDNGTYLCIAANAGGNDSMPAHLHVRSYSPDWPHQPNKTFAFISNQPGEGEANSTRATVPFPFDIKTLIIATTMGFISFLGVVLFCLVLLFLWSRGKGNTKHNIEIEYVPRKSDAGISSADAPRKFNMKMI
Experimental: as §1

binding result [1]: no binding
B1: D13 (full-length antibody with the Li13 variable region) (antibody, V domains shown)
VH: EVQLLESGGGLVQPGGSLRLSCAASGFTFSHYEMYWVRQAPGKGLEWVSRIVSSGGFTKYADSVKGRFTISRDNSKNTLYLQMNSLRAEDTAVYYCATEGDNDAFDIWGQGTTVTVSS
VL: DIQMTQSPATLSLSPGERATLSCRASQSVSSYLAWYQQKPGQAPRLLIYDASNRATGIPARFSGSGSGTDFTLTISSLEPEDFAVYYCQQRSNWPMYTFGQGTKLEIK
notes: also called 72-D03 (Dli13) Ab

binding result (AP-Sp35 (418-498)): no binding
B2: D06 (full-length antibody with the Li06 variable region) (antibody, V domains shown)
VH: EVQLLESGGGLVQPGGSLRLSCAASGFTFSEYPMDWVRQAPGKGLEWVSSIYSSGGSTVYADSIKGRFTISRDNSKNTLYLQMNSLRAEDTAVYYCAREGDSDAFDIWGQGTMVTVSS
VL: DIQMTQSPSTLSASVGDRVTITCRASQSISSWLAWYQQKPGKAPNLLIYAASSLRTGVPSRFRGSGSGTDFTLTISSLQPEDFATYYCLQDYSYPLTFGQGTKLEIK
notes: also called 34-F02 (Dli06) Ab

binding result (Ig region of Sp35): no binding
EC50 (read off the curve) [2]: ~0.4 nM
EC50 (read off the curve) [3]: ~0.4 nM
B3: 3B5.2 monoclonal antibody (ATCC PTA-8106) (antibody, mouse IgG1, V domains shown)
VH: QVQLQQPGAELVRPGTSVKLSCRASGYTFTSYWMHWVKQRPGQGLEWIGVIDPSDSYTNYNQKFRGKATLTVDTSSSTAYMQLSSLTSEDSAVYYCARPYYGSHWFFDVWGTGTTVTVSS
VL: QIVLTQSPAIMSASPGEKVTMTCSASSRVSYVHWYQQKSGTSPKRWLYDTSNLASGVPARFGGNGSGTSYSLTISSMEAEDAATYYCQQWSTNPPTFGGGTKLEIK
modifications: N-linked glycosylation site in FR3 (appears glycosylated)
notes: murine IgG1/kappa; also called 2.P3B5.2
